The values that follow come from article PMC9612326 (Viruses, 2022).

Peptide text beside a SMILES is read from it.

Series [1] has as its target His-tagged Spike RBD protein (SARS-CoV-2) (UniProt P0DTC2). Put plainly: BLI.
Series [2] in a line: Peptide stability in human serum. Particulars: human serum (50% v/v) from a healthy donor.

tripeptide VFI: the Kd in series [1] came to 28.4 µM.
Take `CC(C)C[C@H](NC(=O)[C@@H](N)[C@@H](C)O)C(=O)N[C@@H](Cc1c[nH]cn1)C(N)=O` [TLH] (H-Thr-Leu-His-NH2): the half-life at 1 mM in series [2] is 4.36 h.
In series [1], tripeptide TLH showed a Kd of 22.8 µM.
Take `CC[C@H](C)[C@H](NC(=O)[C@H](Cc1ccccc1)NC(=O)[C@@H](N)C(C)C)C(N)=O` [VFI] (H-Val-Phe-Ile-NH2): the half-life at 1 mM in series [2] was 12.4 h.
